In this series the target is T1, MBP-OsBZR1 (Oryza sativa, UniProt Q7XI96 1-298).
T1 sequence: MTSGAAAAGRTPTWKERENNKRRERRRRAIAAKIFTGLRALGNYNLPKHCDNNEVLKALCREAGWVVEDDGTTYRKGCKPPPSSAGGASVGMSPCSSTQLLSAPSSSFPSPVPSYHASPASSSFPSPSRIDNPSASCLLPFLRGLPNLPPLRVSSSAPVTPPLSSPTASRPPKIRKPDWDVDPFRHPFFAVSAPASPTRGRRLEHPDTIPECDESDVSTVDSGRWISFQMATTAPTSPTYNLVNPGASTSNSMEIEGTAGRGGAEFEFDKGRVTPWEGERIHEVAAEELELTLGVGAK
The series can be described thus: EMSA; EMSA, 20 uL: 2 ug protein; 2 uL 10x buffer (100 mM Tris, 500 mM KCl, 10 mM DTT, pH 7.5), 1 uL each of 50% glycerol, 1% NP-40, 1 M KCl, 100 mM MgCl2, 200 mM EDTA, 1 ug/uL poly(dI-dC); i.e. about 10 mM Tris, 100 mM KCl, 5 mM MgCl2, 10 mM EDTA; 25 C, 20 min; 10% native PAGE. The following applies: protein: recombinant; tags: MBP (N-terminal fusion, pETMALc-H); chain copies: 2; label: biotin 3' end; blunt.

B1: LIC promoter P1 (dsDNA)
DNA 1: CGACGTCGTGCGGCCGCG
DNA 2: CGCGGCCGCACGACGTCG
For B1, the binding result is recorded as “binds”.

B2: MP1 (P1 with CGTGCG to CGAAAA) (dsDNA)
DNA 1: CGACGTCGAAAAGCCGCG
DNA 2: CGCGGCTTTTCGACGTCG
For B2, the binding result is on record as “no binding”.

B3: LIC promoter P2 (dsDNA)
DNA 1: CGGGCGCGTGTGTGGCGG
DNA 2: CCGCCACACACGCGCCCG
Take B3: the binding result is “no binding”.

Source of the values: paper PMC3343102, “Dynamics of Brassinosteroid Response Modulated by Negative Regulator LIC in Rice”.
